Test results reported in article PMC10583174.

Biological target: glucagon receptor (GCGR) (mouse (endogenous in primary hepatocytes)) (UniProt Q61606)
Experiment: radioligand binding

Chain of UniProt Q61606 (Q61606 27-485): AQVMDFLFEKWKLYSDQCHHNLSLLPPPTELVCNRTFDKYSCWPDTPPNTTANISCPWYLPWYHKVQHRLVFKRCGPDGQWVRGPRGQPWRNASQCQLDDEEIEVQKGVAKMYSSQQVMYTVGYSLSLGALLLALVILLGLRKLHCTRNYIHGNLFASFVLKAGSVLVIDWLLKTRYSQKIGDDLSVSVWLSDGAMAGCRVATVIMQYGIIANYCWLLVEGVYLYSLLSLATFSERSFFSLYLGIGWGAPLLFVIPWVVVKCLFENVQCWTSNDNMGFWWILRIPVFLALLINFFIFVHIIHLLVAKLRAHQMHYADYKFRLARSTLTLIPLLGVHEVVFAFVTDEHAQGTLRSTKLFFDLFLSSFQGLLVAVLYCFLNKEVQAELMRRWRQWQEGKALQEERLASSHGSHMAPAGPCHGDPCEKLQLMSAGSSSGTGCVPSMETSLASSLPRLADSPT

glucagon (human) (peptide)
fold Kd, GNE LKO over GNE WT hepatocytes: 10 fold
